In the experiment the target is T1, gp100 peptide on HLA-C*06:02 (human).
T1 peptide: HRRGSRSYV
The experiment can be described thus: multimer staining. On the procedure: T cells (1×10⁵) were incubated for 30 minutes at 37° C. in the presence of 50 nM dasatinib (LC laboratories). The cells were then washed and incubated with 5-10 μg/ml of multimer for 30 minutes at room temperature, and R-phycoerythrin-conjugated AffiniPure Fab fragment goat anti-mouse IgG1 (Jackson ImmunoResearch Laboratories) was added for 15 minutes at 4° C. Next, the cells were washed three times and costained with an anti-CD8 mAb for 15 minutes at 4° C. Dead cells were finally discriminated using the LIVE/DEAD Fixable Dead Cell Stain kit.

B1: C*06:02/gp100190-198 TCR (TCR, V domains shown)
Valpha: KNQVEQSPQSLIILEGKNCTLQCNYTVSPFSNLRWYKQDTGRGPVSLTIMTFSENTKSNGRYTATLDADTKQSSLHITASQLSDSASYICVVRGMDSSYKLIFGSGTRLLVRP
Vbeta: DAMVIQNPRYQVTQFGKPVTLSCSQTLNHNVMYWYQQKSSQAPKLLFHYYDKDFNNEADTPDNFQSRRPNTSFCFLDIRSPGLGDAAMYLCATSSEDSSNQPQHFGDGTRLSIL
As for B1, the binding result is given as “recognises”.

The record behind these values is patent US20220152105A1 (published 2022).
